Test results taken from patent US11242370B2, “Neuregulin-4 compounds and methods of use” (Eli Lilly and Company, priority 2019, dated 2022).
Read-outs that look alike come from different tables or passages of the source. Bridges are numbered along the chain shown (N, C = ends). Where no end group is shown, it is not given here.

Experiments:
[1] = Plasma pharmacokinetics in monkeys (toxicology studies); details: cynomolgus monkey, in vivo, sc
Method: (§1) Example 11 is administered in a single 3 mg/kg dose to male and female monkeys by SC bolus injection.

[2] = Plasma pharmacokinetics in rats (toxicology studies); details: rats
Method: as §1

[3] = in vivo; details: rat, plasma, sc
Excerpt: (§2) On Day 4, blood samples are collected to determine plasma concentration and the infusion pump is removed.

[4] = Day 4 (96 hours), steady state
Excerpt: as §2

[5] = in vivo; details: rat, plasma, sc, 2.18 mg/kg/day
Excerpt: At the end of designated infusion phase, blood samples are collected to determine plasma concentration and the infusion pump is removed.

[6] = target: T1, HER4 receptor extracellular domain (ECD) (Homo sapiens, UniProt Q15303); assay: HER4/NRG-Fc binding assay (ELISA) for screening NRG4 variants
T1 construct: C-terminal His-tagged HER4 receptor extracellular domain (ECD) construct
T1 sequence (Q15303 26-651 limits assumed): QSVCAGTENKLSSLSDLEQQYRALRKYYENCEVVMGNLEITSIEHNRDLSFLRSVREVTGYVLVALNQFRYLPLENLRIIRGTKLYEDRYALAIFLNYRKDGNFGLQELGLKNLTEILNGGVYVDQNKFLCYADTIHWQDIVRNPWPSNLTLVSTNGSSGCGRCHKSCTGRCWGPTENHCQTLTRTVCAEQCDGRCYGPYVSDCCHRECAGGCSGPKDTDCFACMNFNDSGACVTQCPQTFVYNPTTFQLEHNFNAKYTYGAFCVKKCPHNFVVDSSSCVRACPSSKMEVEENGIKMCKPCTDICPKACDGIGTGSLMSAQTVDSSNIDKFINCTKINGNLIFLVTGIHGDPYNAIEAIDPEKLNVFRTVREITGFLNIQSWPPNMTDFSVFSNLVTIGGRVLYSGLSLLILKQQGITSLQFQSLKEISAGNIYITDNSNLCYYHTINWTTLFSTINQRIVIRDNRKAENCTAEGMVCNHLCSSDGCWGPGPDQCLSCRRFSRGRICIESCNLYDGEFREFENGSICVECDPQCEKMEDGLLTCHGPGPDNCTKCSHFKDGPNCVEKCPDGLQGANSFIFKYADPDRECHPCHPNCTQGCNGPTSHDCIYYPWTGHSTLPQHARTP
Method: A binding assay is utilized to perform high-throughput screening of NRG4 variant Fc fusion proteins to HER4 receptor, to identify affinity-driven variants with the potential to increase receptor activation and signaling. ELISA plates are coated with an anti-His tag antibody at 2 μg/ml in PBS to facilitate the standardized capture of a C-terminal His-tagged HER4 receptor extracellular domain (ECD) construct after blocking the plate with 1% BSA/PBS/0.1% Tween 20 (HER4 ECD at 5 μg/ml). Saturating amounts of unpurified NRG4-Fc variants in expression media (Starting at 10 μg/ml with serial dilutions in 1% BSA/PBS/0.1% Tween 20) are incubated with the captured receptor for 1 hour. After washing, bound variant NRG4-Fc is detected colorimetrically with an anti-human Fc-specific alkaline phosphatase secondary detection reagent to quantitate binding. Incubation times of variant binding to receptor or durations of the subsequent wash steps are varied to further identify binding variants driven by affinity on-rate and off-rate, respectively.

[7] = target: T2, human HER2 and HER4 (Homo sapiens, UniProt Q15303); assay: Screening by human HER2-HER4 mediated ERK 1/2 phosphorylation in CHO-hHER2-hHER4 (clone 1H6) cells; format: cell-based; details: Table 5; Fc variants as 293F supernatants; Examples average of two replicates ± standard deviation
T2 construct: expressed in transfected cells
Method: A cell based assay utilizing CHO-K1 cells overexpressing human or rat HER receptors is used to determine activity of NRG4 compounds. CHO-K1 cells (ATCC) are grown in DMEM-F12 3:1 with 5% FBS with 20 mM HEPES, 40 μg/mL L-Proline, lx antibiotics and were split 1:5 every 2-3 days with TripLE Express (Gibco). Cells are transfected with plasmid DNA encoding HER receptors in pairs (hHER2-3, hHER2-4, rHER2-3 and rHER2-4) with Fugene 6 (Promega) according to the manufacturer's instructions. […] Transfected cells are selected with Puromycin (12 ug/ml) and Hygromycin (1 mg/ml) for 3-4 weeks and clonal lines are obtained by limited dilution cloning into 96 well plates. Clonal lines are selected by appropriate gene expression of HER2, HER3 or HER4 by Taqman method. Lines with appropriate receptor expression are confirmed by NRG1 induced phospho-ERK 1/2 responses. Clones are grown up, harvested, aliquoted into cryovials and then frozen under liquid nitrogen for long-term storage.
A phospho-ERK1/2 activity assay is used to determine potencies of NRG4 compounds. The potency of Examples 1-8 and 10 as compared to WT human NRG1 and/or human NRG4 are analyzed in studies measuring stimulation of human HER2-HER4 mediated ERK 1/2 phosphorylation. This assay comprises a CHO-K1 stable line expressing human HER2 and HER4. CHO-hHER2-hHER4 (clone 1H6) cells are routinely cultured in DMEM: F12(3:1), 5% FBS, 40 μg/mL L-Proline, 10 μg/mL puromycin and 1 mg/mL hygromycin at 37° C., 5% CO2. Cells are washed twice with 1×PBS, dissociated with 0.05% trypsin/[…] EDTA and collected by centrifugation at 300×g for 10 m. Cells are re-suspended in maintenance media. 20,000 cells/well, in 30 μL, are seeded into 384 well Poly-D-Lysine cell culture plates (Greiner, Cat No. 781946). Plates are covered with a manufacturer's lid and moved to a 37° C. tissue culture incubator at 5% CO^2, 80%+ humidity and allowed to adhere. After 24 h, media are removed from the plates and replaced with 30 μL serum-free starvation media (Low glucose DMEM with 0.1% BSA) using a Biomek FX liquid handler. Plates are returned to the incubator for 24 h.
hFcNRG4 variants, transiently expressed as 293F supernatants, are prepared in starvation media in a clear 384W plate (Greiner, cat no. 781185) as a 4pt 1:8 serial dilution (dose range averaged between 250 pM to 140000 pM). Media are removed from the cell culture plates and the 30 uL/well prepared variants are stamped into the plates using a Biomek FX liquid handler. Plates are sealed with a foil seal and stimulated for 15 minutes at room temperature on an orbital shaker. Cells are then washed once with 50 uL cold PBS. 30 uL lysis buffer is added to the cells and oscillated for 10 m at RT on an orbital shaker.
Detection of phosphorylation of ERR 1/2 is performed with either an AlphaScreen SureFire phospho-ERK1/2 kit (T202/Y204) (Perkin Elmer, catalog no. TGRES) or an AlphaLISA® SureFire® Ultra™ p ERK1/2 assay kit together with the AlphaScreen Protein. A IgG Detection Kit (Protein-A) (PerkinElmer, catalogue no. 6760617). After lysis of the CHO-K1 cells. 4 μL lysate is transferred to a 384W Alpha Proxiplate (Perkin Elmer, cat no, 6008280) with a 384W Biomek FX. 4 uL positive and negative lysates (Perkin Elmer, TGRES-L) are added to available wells as controls. 5 uL/well acceptor mix (containing anti-phoso-Thr202/Tyr204 antibodies and Protein A conjugated acceptor beads) is added to the plate with a Forumlatrix Mantis. The plate is sealed, spun down for 1 min at 300×g and incubated for 2 hr at room temperature on an orbital shaker. 2 μL/well donor mix (containing strepavidin coated donor beads and biotinylated antibodies to a distal ERK1/2 epitope) is dispensed by Mantis. The plate is sealed, spun down for 1 min at 300×g and incubated for 2 hr at room temperature on an orbital shaker before reading on the Perkin Elmer Envision 2103 Multilabel Reader (HIS Alpha mode, excitation time: 40 ms, total measurement time: 130 ms). […]

Q: With “H-GGGGSGHEEPCGPSHKSFCLNGGLCYQIPTIPSPFCRCVENYTGARCEKVFL (disulfide 11-25, 19-36, 38-47 (inferred)) [Example 9]” as the molecule, how does the half-life [1] read?
A: < 5 h

Q: And the “half-life after SC administration” value [2]?
A: less than an hour

Q: And the level at time molar at 96 h ([3]; 0.22 mg/kg/day)?
A: 2.59 nM

Q: And the level at time molar at 96 h ([3]; 0.73 mg/kg/day)?
A: 9.94 nM

Q: And the “Exposure in rat plasma, Mean” value ([4]; 2.18 mg/kg/day SC infusion)?
A: 29.62 nM

Q: What about the “Exposure in rat plasma, Mean” value ([4]; 7.28 mg/kg/day SC infusion) of the same molecule?
A: 72.24 nM

Q: And the level at time molar at 48 h [5]?
A: 40.1 nM

Q: What about the level at time molar at 72 h [5] of the same molecule?
A: 47.3 nM

Q: What about the level at time molar at 96 h [5] of the same molecule?
A: 31.4 nM

B1: Example 1: NRG4 D1G, (GGGGS)3 linker, SEQ ID NO: 10, fused to IgG Fc dimer SEQ ID NO: 6 and 7 (protein)
chain 1: GGGGSGGGGSGGGGSGHEEPCGPSHKSFCLNGGLCYVIPTIPSPFCRCVENYTGARCEEVFL
chain 2: ECPPCPAPPVAGPSVFLFPPKPKDTLMISRTPEVTCVVVDVSHEDPEVQFNWYVDGVEVHNAKTKPREEQFNSTFRVVSVLTVVHQDWLNGKEYKCKVSNKGLPAPIEKTISKTKGQPREPQVYTLPPSREEMTKNQVSLWCLVKGFYPSDIAVEWESNGQPENNYKTTPPVLDSDGSFFLYSKLTVDKSRWQQGNVFSCSVMHEALHNHYTQKSLSLSPG
chain 3: ECPPCPAPPVAGPSVFLFPPKPKDTLMISRTPEVTCVVVDVSHEDPEVQFNWYVDGVEVHNAKTKPREEQFNSTFRVVSVLTVVHQDWLNGKEYKCKVSNKGLPAPIEKTISKTKGQPREPQVYTLPPSREEMTKNQVSLSCAVKGFYPSDIAVEWESNGQPENNYKTTPPVLDSDGSFFLVSKLTVDKSRWQQGNVFSCSVMHEALHNHYTQKSLSLSPG
Q: With B1 as the molecule, how does the “O.D. 405, binding to HER4 extracellular domain” value (“O.D. 405, binding” for short) ([6]; Dose # 1: Example 1 10.65, WT NRG1 10, WT NRG4 17 μg/mL) read?
A: 1.485

Q: And the “O.D. 405, binding” value ([6]; Dose # 2: Example 1 5.325, WT NRG1 5, WT NRG4 8.5 μg/mL)?
A: 1.438

Q: What about the “O.D. 405, binding” value ([6]; Dose # 3: Example 1 2.6625, WT NRG1 2.5, WT NRG4 4.25 μg/mL) of the same molecule?
A: 1.4

Q: What about the “O.D. 405, binding” value ([6]; Dose # 4: Example 1 1.33125, WT NRG1 1.25, WT NRG4 2.125 μg/mL) of the same molecule?
A: 1.332

Q: And the “O.D. 405, binding” value ([6]; Dose # 5: Example 1 0.665625, WT NRG1 0.625, WT NRG4 1.0625 μg/mL)?
A: 1.217

Q: And the “O.D. 405, binding” value ([6]; Dose # 6: Example 1 0.332813, WT NRG1 0.3125, WT NRG4 0.53125 μg/mL)?
A: 1.081

Q: And the “O.D. 405, binding” value ([6]; Dose # 7: Example 1 0.166406, WT NRG1 0.15625, WT NRG4 0.265625 μg/mL)?
A: 0.865

Q: What about the “O.D. 405, binding” value ([6]; Dose # 8: Example 1 0.083203, WT NRG1 0.078125, WT NRG4 0.132813 μg/mL) of the same molecule?
A: 0.607

Q: What about the “O.D. 405, binding” value ([6]; Dose # 9: Example 1 0.041602, WT NRG1 0.039063, WT NRG4 0.066406 μg/mL) of the same molecule?
A: 0.404

Q: What about the “O.D. 405, binding” value ([6]; Dose # 10: Example 1 0.020801, WT NRG1 0.019531, WT NRG4 0.033203 μg/mL) of the same molecule?
A: 0.235

Q: What about the “O.D. 405, binding” value ([6]; Dose # 11: Example 1 0.0104, WT NRG1 0.009766, WT NRG4 0.016602 μg/mL) of the same molecule?
A: 0.136

Q: What about the “O.D. 405, binding” value ([6]; Dose # 12: Example 1 0.0052, WT NRG1 0.004883, WT NRG4 0.008301 μg/mL) of the same molecule?
A: 0.096

Q: What about the EC50 [7] of the same molecule?
A: 0.77 ± 0.16 nM
